Test results from patent US5498695A, “Paranitroaniline peptides” (Pfizer Inc., priority 1994, dated 1996).

Assays:
Test in all cases: Spectrophotometric hydrolysis of pNA substrates by immobilized ICE (release of pNA at 405 nM)
Assay type in all cases: biochemical, Human
Details in all cases: other: pNA substrate 0.01 to 1.5 mM, 25° C., pH 7
[1] = substrate: CC(=O)N[C@@H](Cc1ccc(O)cc1)C(=O)N[C@H](C(=O)N[C@@H](C)C(=O)N[C@@H](CC(=O)O)C(=O)Nc1ccc([N+](=O)[O-])cc1)C(C)C
Method: (§1) Other procedures for purification and assaying ICE are disclosed in Black et al., FEBS Letters, 247, 386-390 (1989), and Thornberry et al., Nature, 356, 768-774 (1992). Cell Culture And Lysates.
(§2) Human monocyte cell line, THP-1 (ATCC-TIB 202) was grown in RPMI media 1640 (Gibco BRL Gaithersburg, Md. 20877) with 10% fetal bovine serum, harvested by centrifugation, washed twice in Dulbecco's PBS […] without Ca^++, and resuspended in 10 mM Tris-HCl pH 8 buffer containing 5 mM DTT (dithiothreitol), 1 mM EDTA (ethylene diamine tetraacetic acid), 1 mM PMSF (phenylmethyl sulfonylfluoride), 1 μg/ml pepstatin, and 1 μg/ml leupeptin at 1-3×10^8 cells per ml. Cells were frozen at -70° C. until use and then lysed by thawing. Lysates were cleared by centrifugation at 20,000× g for 1 hour followed by 120,000×g for 1 hour.
(§3) ICE activity was purified from THP-1 cell lysates by three chromatographic steps: (A) Thp-1 cell lysate (1.5L) was desalted by G25 column chromatography (Pharmacia LKB Biotechnology) (B) The protein fraction was then subjected to ion-exchange chromatography on Q-Sepharose Fast Flow (Pharmacia LKB Biotechnology) in buffer A (20 mM Tris pH 7.8 containing 5 mM EDTA, 1 mM PMSF, 1 μg/ml pepstatin, and 1 μg/ml leupeptin). ICE activity was eluted with a gradient of NaCl in buffer A. (C) The active fractions from B were desalted, concentrated and subjected to MonoQ (trademark) (Pharmacia LKB Biotechnology) column chromatography. ICE activity was then eluted in a NaCl gradient. Active ICE fractions from C were pooled and used to bind immunoaffinity beads containing covalently linked antibodies raised against the first […] N-terminal residues of ICE (NH2 -Asp-Pro-Ala-Met-Pro-Thr-Ser-Ser-Val-Lys-Leu-Cys(SEQ ID NO:2)-CONH2).
(§4) Immobilization of ICE to immunoaffinity beads was done following standard protocols. Briefly, IgG fractions were covalently linked to protein A beads as described by the manufacturers (Antibody Orientation Kit Protein A Agarose supplied by Affinica (trademark) (Product manufactured by Schleicher and Schuell)). Protein A beads were pelleted by centrifugation and washed with 5 times their volume with Affinica (trademark) supplied "binding buffer". IgG, appropriately diluted in "binding buffer," was then bound to the beads. The beads were then washed and the bound IgG was covalently linked with dimethyl suberimidate. After the reaction was stopped with the "quenching buffer" supplied by Affinica (trademark), the immunoaffinity beads were washed and stored in PBS buffer containing 0.02% NAN3. […]
(§5) The enzymatic reaction was monitored spectrophotometrically at […]. The increase in absorbance at this wave length resulted from the release of pNA chromophore after hydrolysis by ICE of the peptidic-pNA substrate. […]

[2] = substrate: CC(=O)N[C@H](C(=O)N[C@@H](C)C(=O)N[C@@H](CC(=O)O)C(=O)Nc1ccc([N+](=O)[O-])cc1)C(C)C
Method: as §1, §2, §3, §4, §5

[3] = substrate: CC(C)[C@H](NC(=O)OCc1ccccc1)C(=O)N[C@@H](C)C(=O)N[C@@H](CC(=O)O)C(=O)Nc1ccc([N+](=O)[O-])cc1
Method: as §1, §2, §3, §4, §5

[4] = substrate: CC(C)[C@H](NC(=O)OC(C)(C)C)C(=O)N[C@@H](C)C(=O)N[C@@H](CC(=O)O)C(=O)Nc1ccc([N+](=O)[O-])cc1
Method: as §1, §2, §3, §4, §5

B1: interleukin 1β converting enzyme (ICE) (Homo sapiens) (protein)
chain 1: NPAMPTSSGSEGNVKLCSLEEAQRIWKQKSAEIYPIMDKSSRTRLALIICNEEFDSIPRRTGAEVDITGMTMLLQNLGYSVDVKKNLTASDMTTELEAFAHRPEHKTSDSTFLVFMSHGIREGICGKKHSEQVPDILQLNAIFNMLNTKNCPSLKDKPKVIIIQACRGDSPGVVWFKD
chain 2: AIKKAHIEKDFIAFCSSTPDNVSWRHPTMGSVFIGRLIEHMQEYACSCDVEEIFRKVRFSFEQPDGRAQMPTTERVTLTRCFYLFPGH
notes: ICE activity was purified from THP-1 cell lysates by three chromatographic steps; endogenous in cells; host or cells: THP-1 (ATCC-TIB 202) human monocyte cell line; Lysate was purified over G25, Q-Sepharose and MonoQ, then captured on protein A agarose beads carrying anti-ICE antibody
Km [1]: 43.8 µM | Km [2]: 447 µM | Km [3]: 97.9 µM | Km [4]: 443 µM
